Test results reported in US11319551B2, “Methods and compositions for PPO herbicide tolerance in plants” (Monsanto Technology LLC, priority 2015, dated 2022).

B1: R2N90: microbial HemY protoporphyrinogen oxidase, SEQ ID NO:4 (protein, listed as Bacillus pumilus)
chain: MHDNQKHLVIIGGGITGLAAAFYLEKEVEEKGLPIQISLIEASPRLGGKIQTLYKDGYIIERGPDSFLERKVSGPQLAKDVGLSDQLVNNETGQAYVLVNEKLHPMPKGAVMGIPTQISPFITTGLFSVAGKARAAMDFVLPKSKQTEDQSLGEFFRRRVGDEVVENLIEPLLSGIYAGDIDRLSLMSTFPQFYQTEQQHRSLILGMKKSQQHAKAQQVTAKKQGQFQTINQGLQSLVEAVEGKLKLTTVYKGTKVKQIEKTDGGYGLQLDSGQTLFADSAIVTTPHQSIYSMFPKEAGLEYLHDMTSTSVATVALGFKDEDVHNEYDGTGFVISRNSDFSITACTWTNKKWPHTAPKGKTLLRAYVGKAGDESIVEQSDSQIVSIVLEDLKKIMDIKADPELTTVTRWKTSMPQYHVGHQKAISNMRETFKQSYPGVYITGAAFEGVGIPDCIDQGKAAISEAVSYLFS
B2: R2N100: microbial HemY protoporphyrinogen oxidase, SEQ ID NO:5 (protein, listed as Bacillus pumilus)
chain: MHDNQKHLVIIGGGITGLAAAFYLEKEVEEKGLPIQISLIEASPRLGGKIQTLYKDGYIIERGPDSFLERKVSGPQLAKDVGLSDQLVNNETGQAYVLVNETLHPMPKGAVMGIPTQISPFITTGLFSVAGKARAAMDFVLPKSKQTEDQSLGEFFRRRVGDEVVENLIEPLLSGIYAGDIDRLSLMSTFPQFYQTEQKHRSLILGMKKSQQHAKAQQVTAKKQGQFQTINQGLQALVEAVESKLKLTTIYKGTKVKQIEKTDGGYGVQLDSGQTLLADSAIVTTPHQSIYSMFPKEAGLEYLHDMTSTSVATVALGFKEEDVHNEYDGTGFVISRNSDFSITACTWTNKKWPHTAPKGKTLLRAYVGKAGDESIVEQSDHQIVSIVLEDLKKIMDIKADPELTTVTRWKTSMPQYHVGHQKAISNMRETFKQSYPGVYITGAAFEGVGIPDCIDQGKAAISEAVSYLFS

Key:
[1] = tested on: transgenic soybean plants; test: S-3100 tolerance of transformed soybean plantlets at five weeks; format: in vivo; parameters: key to Tolerance score to S-3100 at 5 weeks: 0 for poor tolerance, high damage, low green coloration; 1 for some tolerance, average damage, moderate green coloration; 2 for good tolerance, low damage, high green coloration; settings: for tolerance to the PPO herbicide in high-throughput screening at five weeks: S-3100, over the constructs with different transit peptides; for Tolerance score to S-3100 at 5 weeks: day four post application
Experimental: The microbial HemY PPO enzymes were expressed in transgenic soybean plants, and the transgenic plants were analyzed for PPO herbicide tolerance. […] For plant transformation, the nucleotide sequences encoding the HemY PPO enzymes were codon optimized for dicot expression. This permitted the side-by-side comparison of the seven different HemY PPO enzymes with thirty-nine different targeting peptides using the same promoter and 3′UTR elements for gene expression
The plant transformation constructs were used to transform soybean excised embryos (germplasm A3555) using A. tumefaciens and standard methods known in the art. Four hundred explants were inoculated for each construct resulting in twelve containers per construct. A sterile PPO herbicide solution was used for herbicide tolerance testing. The herbicide solution consisted of 0.3 g of S-3100 in crop oil concentrate (5.0 mL) and 495 mL of deionized water. This was filtered through a 0.45 micron Nalgene® Rapid-Flow™ Tissue Culture Filter Unit and Surfactant-Free Cellulose Acetate membrane filter unit (VWR, Radnor, Pa., USA). The resulting sterile solution was shaken before application.
At five weeks post-transformation, four of the twelve plant containers per construct were sprayed with two passes of the sterile PPO herbicide solution. The treated plantlets were then enclosed in the container and received at least 15 hours of light exposure post spray each day for four days. At the end of day four post application of S-3100, the treated plantlets were photographed and scored on a visual scale of green coloration (green coloration was representative of healthy photosynthetic plant tissue as compared to photo-bleached tissue) versus damage. The scoring values were 0 for poor tolerance, high damage, low green coloration; 1 for some tolerance, average damage, moderate green coloration; and 2 for good tolerance, low damage, high green coloration. The results of herbicide application of S-3100 at five weeks is presented in Table 5, where n.d. indicates the analysis was not conducted.

[2] = tested on: hemG knockout E. coli strain; format: cell-based; settings: acifluorfen and S-3100
[3] = PPO enzyme assay, apparent Km for substrate; format: biochemical; settings: substrate protoporphyrinogen

Molecule | tolerance to the PPO herbicide in high-throughput screening at five weeks [1] | Tolerance score to S-3100 at 5 weeks ([1]; targeting peptide TP2) | Tolerance score to S-3100 at 5 weeks ([1]; targeting peptide TP5) | Tolerance score to S-3100 at 5 weeks ([1]; targeting peptide TP8) | Tolerance score to S-3100 at 5 weeks ([1]; targeting peptide TP10) | Tolerance score to S-3100 at 5 weeks ([1]; targeting peptide TP12) | Tolerance score to S-3100 at 5 weeks ([1]; targeting peptide TP14) | Tolerance score to S-3100 at 5 weeks ([1]; targeting peptide TP18) | Tolerance score to S-3100 at 5 weeks ([1]; targeting peptide TP19) | Tolerance score to S-3100 at 5 weeks ([1]; targeting peptide TP21) | Tolerance score to S-3100 at 5 weeks ([1]; targeting peptide TP22) | Tolerance score to S-3100 at 5 weeks ([1]; targeting peptide TP23) | Tolerance score to S-3100 at 5 weeks ([1]; targeting peptide TP24) | Tolerance score to S-3100 at 5 weeks ([1]; targeting peptide TP27) | Tolerance score to S-3100 at 5 weeks ([1]; targeting peptide TP28) | Tolerance score to S-3100 at 5 weeks ([1]; targeting peptide TP29) | Tolerance score to S-3100 at 5 weeks ([1]; targeting peptide TP30) | Tolerance score to S-3100 at 5 weeks ([1]; targeting peptide TP31) | Tolerance score to S-3100 at 5 weeks ([1]; targeting peptide TP32) | Tolerance score to S-3100 at 5 weeks ([1]; targeting peptide TP33) | further results
B1 | did not provide tolerance | 0 | 0 | 1 | 0 | 1 | 0 | 1 | 1 | 1 | 0 | 1 | 0 | 0 | 0 | 0 | 0 | 0 | 0 | 0 | Tolerance score to S-3100 at 5 weeks ([1]; targeting peptide TP9): 1; Tolerance score to S-3100 at 5 weeks ([1]; targeting peptide TP13): 0; Tolerance score to S-3100 at 5 weeks ([1]; targeting peptide TP16): 0; Tolerance score to S-3100 at 5 weeks ([1]; targeting peptide TP20): 0; growth rate of hemG knockout E. coli strain in presence of PPO herbicide [2]: slower; tolerance to acifluorfen and S-3100 compared with strain containing R2N30 or R2N40 [2]: much better; Km [3]: 2.8 µM
B2 | did not provide tolerance | 0 | 0 | 1 | 1 | 0 | 1 | 1 | 1 | 0 | 0 | 0 | 0 | 0 | 1 | 0 | 0 | 1 | 0 | 0 | Tolerance score to S-3100 at 5 weeks ([1]; targeting peptide TP1): 0; Tolerance score to S-3100 at 5 weeks ([1]; targeting peptide TP3): 0; Tolerance score to S-3100 at 5 weeks ([1]; targeting peptide TP4): 0; Tolerance score to S-3100 at 5 weeks ([1]; targeting peptide TP6): 0; Tolerance score to S-3100 at 5 weeks ([1]; targeting peptide TP15): 0; Tolerance score to S-3100 at 5 weeks ([1]; targeting peptide TP17): 0; Tolerance score to S-3100 at 5 weeks ([1]; targeting peptide TP25): 0; Tolerance score to S-3100 at 5 weeks ([1]; targeting peptide TP26): 1; Tolerance score to S-3100 at 5 weeks ([1]; targeting peptide TP36): 0; Tolerance score to S-3100 at 5 weeks ([1]; targeting peptide TP37): 0; growth rate of hemG knockout E. coli strain in presence of PPO herbicide [2]: slower; tolerance to acifluorfen and S-3100 compared with strain containing R2N30 or R2N40 [2]: much better; Km [3]: 0.4 µM
